The assay has as its target T1, human IL-22 receptor complex IL22R1 and IL10R2 (human) (UniProt Q8N6P7).
T1 sequence (looked up) 1: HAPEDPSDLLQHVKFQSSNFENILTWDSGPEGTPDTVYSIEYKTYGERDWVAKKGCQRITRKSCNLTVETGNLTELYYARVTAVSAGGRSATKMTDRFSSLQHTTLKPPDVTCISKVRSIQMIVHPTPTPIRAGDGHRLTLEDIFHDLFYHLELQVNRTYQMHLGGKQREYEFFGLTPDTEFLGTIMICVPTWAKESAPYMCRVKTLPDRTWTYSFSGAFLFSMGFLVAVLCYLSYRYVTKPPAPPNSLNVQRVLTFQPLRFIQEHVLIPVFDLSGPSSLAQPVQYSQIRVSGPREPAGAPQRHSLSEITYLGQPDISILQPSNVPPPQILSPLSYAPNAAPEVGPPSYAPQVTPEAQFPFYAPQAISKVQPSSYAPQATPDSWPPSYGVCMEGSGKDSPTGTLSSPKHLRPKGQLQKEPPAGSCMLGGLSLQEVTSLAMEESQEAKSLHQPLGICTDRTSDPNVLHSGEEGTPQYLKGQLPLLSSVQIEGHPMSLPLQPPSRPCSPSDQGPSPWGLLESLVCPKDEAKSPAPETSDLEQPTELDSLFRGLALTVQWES
T1 sequence (looked up) 2: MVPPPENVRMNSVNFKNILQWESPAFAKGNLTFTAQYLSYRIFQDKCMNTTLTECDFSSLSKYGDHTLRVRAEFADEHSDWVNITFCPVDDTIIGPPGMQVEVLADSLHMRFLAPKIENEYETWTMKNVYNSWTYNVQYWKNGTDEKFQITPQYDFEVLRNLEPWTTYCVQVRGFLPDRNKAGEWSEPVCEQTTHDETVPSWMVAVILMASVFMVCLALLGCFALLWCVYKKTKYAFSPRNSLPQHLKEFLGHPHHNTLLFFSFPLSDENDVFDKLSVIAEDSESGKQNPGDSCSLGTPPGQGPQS
Kind of assay: cell-based or functional assay.

B1: IL-22 Fc construct 13 (huIgG1, linker …) (Fc fusion, not shown: a dimerising Fc or GST)
chain: APISSHCRLDKSNFQQPYITNRTFMLAKEASLADNNTDVRLIGEKLFHGVSMSERCYLMKQVLNFTLEEVLFPQSDRFQPYMQEVVPFLARLSNRLSTCHIEGDDLHIQRNVQKLKDTVKKLGESGEIKAIGELDLLFMSLRNACIKVDKKVEPKSSDKTHTCPPCP
With B1, the EC50 (STAT3 luciferase reporter assay) came out at 0.025 nM.

B2: IL-22 Fc construct 12 (huIgG1, linker …) (Fc fusion, not shown: a dimerising Fc or GST)
chain: APISSHCRLDKSNFQQPYITNRTFMLAKEASLADNNTDVRLIGEKLFHGVSMSERCYLMKQVLNFTLEEVLFPQSDRFQPYMQEVVPFLARLSNRLSTCHIEGDDLHIQRNVQKLKDTVKKLGESGEIKAIGELDLLFMSLRNACIDKKVEPKSSDKTHTCPPCP
The molecule B2 registered an EC50 (STAT3 luciferase reporter assay) of 0.025 nM.

B3: IL-22 Fc construct 24 (huIgG1, linker …, produced in E. coli) (Fc fusion, not shown: a dimerising Fc or GST)
chain: APISSHCRLDKSNFQQPYITNRTFMLAKEASLADNNTDVRLIGEKLFHGVSMSERCYLMKQVLNFTLEEVLFPQSDRFQPYMQEVVPFLARLSNRLSTCHIEGDDLHIQRNVQKLKDTVKKLGESGEIKAIGELDLLFMSLRNACIEPKSSDKTHTCPPCP
Consider B3, for which the EC50 (STAT3 luciferase reporter assay) was determined as 0.016 nM.

B4: IL-22 Fc construct 18 (huIgG1, linker …, N297G) (Fc fusion, not shown: a dimerising Fc or GST)
chain: APISSHCRLDKSNFQQPYITNRTFMLAKEASLADNNTDVRLIGEKLFHGVSMSERCYLMKQVLNFTLEEVLFPQSDRFQPYMQEVVPFLARLSNRLSTCHIEGDDLHIQRNVQKLKDTVKKLGESGEIKAIGELDLLFMSLRNACIKKVEPKSSDKTHTCPPCP
Consider B4, for which the EC50 (STAT3 luciferase reporter assay) was determined as 0.02 nM.

These data come from patent publication US20140314711A1.
